{"source": "paper PMC10381268", "about": "“VEGF Detection via Impedance Spectroscopy on Surface Functionalized Interdigitated Biosensor”", "molecular_target": "VEGF165 (vascular endothelial growth factor) (UniProt P15692-4 27-191)", "sequence (P15692 other isoform, or with tags, fused parts or gaps)": "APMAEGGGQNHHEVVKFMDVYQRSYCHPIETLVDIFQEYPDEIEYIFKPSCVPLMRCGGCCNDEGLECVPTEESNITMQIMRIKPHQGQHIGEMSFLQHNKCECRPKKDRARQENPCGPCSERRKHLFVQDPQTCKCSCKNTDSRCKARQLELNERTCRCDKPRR", "experiment": "impedance spectroscopy on aptamer-grafted interdigitated sensor; 5 and 50 pM VEGF in PBS; 10 kHz impedance 50.32 (water), 28.90 (5 pM), 12.81 kOhm (50 pM); proteins diluted in PBS (5 and 50 pM), about 25 °C, impedance 2.5-100 kHz; aptamer grafted at 50 nM, pH 8, 24 h; water pH 7 as control", "details": "protein: commercial; chain copies: 2"}
{"binder": "VEGF165 DNA aptamer (ssDNA, grafted on NHS-functionalized mercapto monolayer; attachment group on the DNA not stated) DNA: ATACCAGTCTATTCAATTGGGCCCGTCCGTATGGTGGGTGTGCTGGCCAGATAGTATGTGCAATCA", "values": [{"measurement": "binding result", "result": "binds"}]}
